Measurements published in US11110182B2, “Multifunctional RNA nanoparticles and methods for treating cancer and therapeutic resistant cancer” (University of Cincinnati, priority 2016, dated 2021).

Test system: BT474 cells
Assay: MTT assay, BT474 cells
Type: cell-based, human
Protocol: FIG. 3A) BT474 cells were incubated with 10 μg/mL control and pRNA-HER2apt-siMED1 nanoparticles for 48 h, and MED1 mRNA level was determined by real-time PCR. FIG. 3B) BT474 cells were incubated directly with (as indicated by -) or transfected with indicated pRNAs using lipofectamine 2000. At 48 h post treatment, MED1 protein levels were determined by western blotting. FIG. 3C) BT474 cells were treated with 10 μg/mL pRNA nanoparticles for 48 h and assayed for cell viability by MTT assay. FIG. 3D) Cells were treated as above and seeded for migration, and FIG. 3E) invasion transwell assays. Scale bar: 50 μm. FIG. 3F) After pRNA treatment for 48 h, the mRNA levels of ERα target genes TFF-1, FIG. 3G) c-Myc, and FIG. 3H) cyclin D1 in BT474 cells were determined by real-time PCR.
FIG. 4A) BT474 cells were treated with pRNA nanoparticles in combination with vehicle or 1 μM 4-hydroxy-tamoxifen (4-OHT) as indicated for 48 h, and assayed for cell viability by MTT assay. […] FIG. 4E) The number of mammospheres was counted, and FIG. 4F) the mammosphere size was calculated. […]
FIG. 9A) BT474 cells were treated with different concentrations of pRNA nanoparticles as indicated for 48 h. After that, MED1 protein level was determined by western blots, and FIG. 9B) the cell viability was determined by MTT assay. […]

B1: pRNA-HER2apt-siMED1: 3-WJ pRNA nanoparticle bearing a HER2-targeting RNA aptamer and two different MED1 siRNAs; strands p1 SEQ ID NO: 3, p2 SEQ ID NO: 4 (nucleic acid)
chain 1: GGACAGUGAAAGUGAGUCAAAGGAUCAAUCAUGGCCAAAGAUGUUACUUUGAGAGCCUU
chain 2: GGCUCUCAAAGUAACAUCUAAGGCCAUGUGUAUGUGGGGGGAGGACGAUGCGGUCUGCUGUGCUUGAUAUGCCCCAGACGACUCGCCCCCCACAUACUUUGUUGAUCCAAUGACUCACUUUCACUGUCCUU
modifications: 2'-F modification; third strand may lack entry; pRNA-HER2apt-siMED1, p1; pRNA-HER2apt-siMED1, p2
cell growth (MTT) (BT474, 48 h, nanoparticles alone): dose-dependently inhibited | effect on tamoxifen inhibition of cell growth (BT474, in combination with 1 μM 4-hydroxy-tamoxifen, 48 h): significantly enhanced the inhibitory effects of tamoxifen
